In patent publication US20160297851A1 (Scripps Research, published 2016):
Where two headings read alike, the source gives them in different places.

Experiments:
[1] = target: T1, E. coli MG1655 SPase (LepB), wild type, in the bacteria (Escherichia coli, UniProt P00803 1-324); experiment: cell-based or functional assay
[2] = target: T2, P. aeruginosa SPase (LepB) P84S, strain PAS2006, in the bacteria (Pseudomonas aeruginosa, UniProt Q9I5G7 1-284); experiment: cell-based or functional assay
T2 sequence: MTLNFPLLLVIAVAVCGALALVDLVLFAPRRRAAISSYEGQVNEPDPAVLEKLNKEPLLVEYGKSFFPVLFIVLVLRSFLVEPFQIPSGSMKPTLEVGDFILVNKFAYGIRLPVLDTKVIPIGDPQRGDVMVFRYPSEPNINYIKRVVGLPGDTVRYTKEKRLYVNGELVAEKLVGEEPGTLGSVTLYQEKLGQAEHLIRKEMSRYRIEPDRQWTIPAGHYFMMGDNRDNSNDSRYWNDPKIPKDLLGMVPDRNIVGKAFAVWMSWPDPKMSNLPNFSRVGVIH

[3] = target: T3, Staphylococcus epidermidis signal peptidase IB S31P (strain PAS9002) (Staphylococcus epidermidis); experiment: cell-based or functional assay
T3 chain: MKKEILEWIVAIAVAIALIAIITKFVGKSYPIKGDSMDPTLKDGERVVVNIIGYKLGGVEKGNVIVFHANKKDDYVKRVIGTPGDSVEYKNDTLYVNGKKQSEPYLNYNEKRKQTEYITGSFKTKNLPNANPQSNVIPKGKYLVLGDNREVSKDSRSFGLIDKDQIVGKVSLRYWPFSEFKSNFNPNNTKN

[4] = target: T4, P. aeruginosa PAO1 SPase (LepB), wild type, in the bacteria (Pseudomonas aeruginosa, UniProt Q9I5G7 1-284); experiment: cell-based or functional assay
T4 sequence: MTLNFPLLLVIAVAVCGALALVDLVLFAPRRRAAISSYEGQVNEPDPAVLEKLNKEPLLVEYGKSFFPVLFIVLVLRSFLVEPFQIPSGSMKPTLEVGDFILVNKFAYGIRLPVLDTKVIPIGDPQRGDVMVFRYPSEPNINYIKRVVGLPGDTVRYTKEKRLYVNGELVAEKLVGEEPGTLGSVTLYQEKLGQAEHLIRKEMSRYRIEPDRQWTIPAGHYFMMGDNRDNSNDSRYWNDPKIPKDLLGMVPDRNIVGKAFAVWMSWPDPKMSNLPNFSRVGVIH

[5] = target: E. coli SPase (LepB) P84S, strain PAS0232, in the bacteria (Escherichia coli, UniProt P00803 1-324); experiment: cell-based or functional assay
[6] = target: T5, S. aureus SPase (SpsB) P29S, strain PAS8001, in the bacteria (Staphylococcus aureus); experiment: cell-based or functional assay
[7] = target: T6, S. aureus NCTC 8325 SPase (SpsB), wild type, in the bacteria (Staphylococcus aureus); experiment: cell-based or functional assay
[8] = target: T7, Staphylococcus epidermidis RP62A signal peptidase IB, wild type (Staphylococcus epidermidis); experiment: cell-based or functional assay
T7 chain: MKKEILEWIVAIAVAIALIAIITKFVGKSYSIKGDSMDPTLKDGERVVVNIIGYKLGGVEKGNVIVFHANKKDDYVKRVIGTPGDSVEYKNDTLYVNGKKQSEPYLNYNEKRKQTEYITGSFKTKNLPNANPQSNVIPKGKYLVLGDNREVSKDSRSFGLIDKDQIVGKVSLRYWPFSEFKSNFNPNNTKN

[9] = target: T8, Staphylococcus epidermidis signal peptidase IB S29P (strain PAS9001) (Staphylococcus epidermidis); experiment: cell-based or functional assay
T8 chain: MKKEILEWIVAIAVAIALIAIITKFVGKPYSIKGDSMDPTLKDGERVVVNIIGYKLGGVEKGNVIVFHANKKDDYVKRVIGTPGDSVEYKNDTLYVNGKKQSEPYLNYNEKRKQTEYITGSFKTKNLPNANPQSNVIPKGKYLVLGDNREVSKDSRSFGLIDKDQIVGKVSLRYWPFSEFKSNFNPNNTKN

[10] = target: E. coli MG1655 SPase (LepB) P84L, in the bacteria (E. coli, UniProt P00803 1-324); experiment: cell-based or functional assay
[11] = target: T1, E. coli MG1655 SPase (LepB), wild type, …; experiment: cell-based or functional assay; remark: listed apart in the source
[12] = target: T4, P. aeruginosa PAO1 SPase (LepB), wild …; experiment: cell-based or functional assay; remark: listed apart in the source
[13] = target: T5, S. aureus SPase (SpsB) P29S, strain …; experiment: cell-based or functional assay; remark: listed apart in the source
[14] = target: T6, S. aureus NCTC 8325 SPase (SpsB), wild …; experiment: cell-based or functional assay; remark: listed apart in the source
[15] = target: T7, Staphylococcus epidermidis RP62A signal …; experiment: cell-based or functional assay
[16] = target: T8, Staphylococcus epidermidis signal …; experiment: cell-based or functional assay
[17] = target: T3, Staphylococcus epidermidis signal …; experiment: cell-based or functional assay
[18] = target: T8, Staphylococcus epidermidis signal …; experiment: cell-based or functional assay
[19] = target: T9, P84S variant of detergent-solubilized full-length E. coli SPase (His6x-tagged) (Escherichia coli, UniProt P00803 1-324); experiment: steady-state increase of arylomycin fluorescence (ex 320 nm, em 410 nm) on binding detergent-solubilised full-length E. coli SPase P84S
[20] = target: T9, P84S variant of detergent-solubilized …; experiment: steady-state binding by increase of arylomycin fluorescence; detergent-solubilized full-length His-tagged SPase
[21] = target: T10, detergent-solubilized full-length wild type E. coli SPase (His6x-tagged) (Escherichia coli, UniProt P00803 1-324); experiment: as above
T10 construct: Plasmid pET23-lepB came from Dr. Mark Paetzel; also called full-length Pro-variant of E. coli SPase; full length His-tagged E. coli SPase; not shown: His6x tag of plasmid pET23-lepB

[22] = target: T10, detergent-solubilized full-length wild …; experiment: steady-state increase of arylomycin fluorescence (ex 320 nm, em 410 nm) on binding detergent-solubilised full-length wild type E. coli SPase

B1: arylomycin C16 (peptide)
peptide: SAGXAY
modifications: C16 fatty acyl (palmitoyl) tail on the N-terminus of N-methyl-D-Ser2; D-Ala3; N-methyl-4-hydroxyphenylglycine (MeHpg) at 5, written X; biaryl bridge between MeHpg5 and Tyr7 (macrocycle MeHpg5-Ala6-Tyr7); free C-terminal carboxyl; the filing counts the lipid tail as position 1
notes: Synthetic lipohexapeptide derived from the natural product arylomycin A2, with a straight C16 fatty acid tail; It has non-standard and D-residues and is macrocyclic, so it is a borderline case of 'peptide'; also called arylomycin A-C16; Arylomycin A2 C16
MIC [1]: > 128 mg/L | MIC [2]: 8 mg/L | MIC [3]: > 128 mg/L | MIC [4]: > 128 mg/L | MIC [5]: 2 mg/L | MIC [6]: 2 mg/L | MIC [7]: > 128 mg/L | MIC [8]: 0.25 mg/L | MIC [9]: 8 mg/L | MIC [10]: 0.5 mg/L | MIC [11]: > 64 mg/L | MIC [12]: > 64 mg/L | MIC [13]: 2 mg/L | MIC [14]: > 64 mg/L | MIC [15]: 0.5 mg/L | MIC [16]: 8 mg/L | fold elevation of MIC compared to the wild type strain [17]: > 256 fold | fold elevation of MIC compared to the wild type strain [18]: 32 fold | EC50 (read off the curve) [19]: ~0.01 µM | Kd [19]: 0.00573 µM | Kd [20]: 0.0057 µM | Kd [21]: 0.06 µM | EC50 (read off the curve) [22]: ~0.1 µM
